Key:
[1] = target: T1, Smc2 (budding yeast (S. cerevisiae), UniProt P38989 1-1170); assay: cryo-EM structure; condensin pentamer with 100 nM relaxed circular DNA (1,789 bp), 5 mM ADP, 1 mM BeSO4, 10 mM NaF in TNT buffer pH 7.5; VPP and non-VPP images; low-resolution maps of the head module and of Ycg1-DNA; conditions: both partners purified
T1 construct: Smc2, SMC subunit of budding yeast (S. cerevisiae) condensin; only the head domain and proximal coiled coil (neck) are resolved in the maps; Subunit of the wild-type condensin tetramer and pentamer used for cryo-EM
T1 sequence: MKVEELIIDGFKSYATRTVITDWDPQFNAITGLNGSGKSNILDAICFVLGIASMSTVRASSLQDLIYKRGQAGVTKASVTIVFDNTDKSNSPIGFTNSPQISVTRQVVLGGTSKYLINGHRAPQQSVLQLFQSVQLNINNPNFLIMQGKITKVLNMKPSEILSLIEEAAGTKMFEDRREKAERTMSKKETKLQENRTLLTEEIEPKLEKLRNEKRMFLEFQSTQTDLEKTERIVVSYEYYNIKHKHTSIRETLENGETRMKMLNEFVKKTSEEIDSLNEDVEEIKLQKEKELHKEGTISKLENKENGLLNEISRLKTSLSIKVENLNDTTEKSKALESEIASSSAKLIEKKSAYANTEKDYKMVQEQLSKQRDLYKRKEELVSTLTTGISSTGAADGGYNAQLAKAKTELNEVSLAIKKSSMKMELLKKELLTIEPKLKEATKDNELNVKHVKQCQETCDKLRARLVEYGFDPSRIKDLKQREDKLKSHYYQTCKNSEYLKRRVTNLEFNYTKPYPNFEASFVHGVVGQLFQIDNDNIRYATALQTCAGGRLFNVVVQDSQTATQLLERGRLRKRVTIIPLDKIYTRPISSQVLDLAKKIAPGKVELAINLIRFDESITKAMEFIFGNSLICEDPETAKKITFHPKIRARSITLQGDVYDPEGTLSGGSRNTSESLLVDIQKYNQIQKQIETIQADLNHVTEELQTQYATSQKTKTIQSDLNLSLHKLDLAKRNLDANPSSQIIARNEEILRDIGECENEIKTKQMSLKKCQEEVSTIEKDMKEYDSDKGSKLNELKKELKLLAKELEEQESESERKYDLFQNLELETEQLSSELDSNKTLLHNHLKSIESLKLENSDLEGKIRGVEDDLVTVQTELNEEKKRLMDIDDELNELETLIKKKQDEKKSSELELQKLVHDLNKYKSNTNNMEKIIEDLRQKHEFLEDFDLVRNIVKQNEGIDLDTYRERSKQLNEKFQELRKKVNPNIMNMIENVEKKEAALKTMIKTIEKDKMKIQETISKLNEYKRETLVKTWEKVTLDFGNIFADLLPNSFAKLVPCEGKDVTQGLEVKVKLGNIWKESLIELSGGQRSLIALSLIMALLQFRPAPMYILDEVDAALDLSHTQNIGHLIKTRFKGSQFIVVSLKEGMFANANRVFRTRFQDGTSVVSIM

[2] = target: T2, Ycs4 (S. cerevisiae, UniProt Q06156 1-1176); assay: as above; conditions: both partners purified
T2 construct: Ycs4, HAWK (HEAT repeat) subunit of S. cerevisiae condensin
T2 sequence: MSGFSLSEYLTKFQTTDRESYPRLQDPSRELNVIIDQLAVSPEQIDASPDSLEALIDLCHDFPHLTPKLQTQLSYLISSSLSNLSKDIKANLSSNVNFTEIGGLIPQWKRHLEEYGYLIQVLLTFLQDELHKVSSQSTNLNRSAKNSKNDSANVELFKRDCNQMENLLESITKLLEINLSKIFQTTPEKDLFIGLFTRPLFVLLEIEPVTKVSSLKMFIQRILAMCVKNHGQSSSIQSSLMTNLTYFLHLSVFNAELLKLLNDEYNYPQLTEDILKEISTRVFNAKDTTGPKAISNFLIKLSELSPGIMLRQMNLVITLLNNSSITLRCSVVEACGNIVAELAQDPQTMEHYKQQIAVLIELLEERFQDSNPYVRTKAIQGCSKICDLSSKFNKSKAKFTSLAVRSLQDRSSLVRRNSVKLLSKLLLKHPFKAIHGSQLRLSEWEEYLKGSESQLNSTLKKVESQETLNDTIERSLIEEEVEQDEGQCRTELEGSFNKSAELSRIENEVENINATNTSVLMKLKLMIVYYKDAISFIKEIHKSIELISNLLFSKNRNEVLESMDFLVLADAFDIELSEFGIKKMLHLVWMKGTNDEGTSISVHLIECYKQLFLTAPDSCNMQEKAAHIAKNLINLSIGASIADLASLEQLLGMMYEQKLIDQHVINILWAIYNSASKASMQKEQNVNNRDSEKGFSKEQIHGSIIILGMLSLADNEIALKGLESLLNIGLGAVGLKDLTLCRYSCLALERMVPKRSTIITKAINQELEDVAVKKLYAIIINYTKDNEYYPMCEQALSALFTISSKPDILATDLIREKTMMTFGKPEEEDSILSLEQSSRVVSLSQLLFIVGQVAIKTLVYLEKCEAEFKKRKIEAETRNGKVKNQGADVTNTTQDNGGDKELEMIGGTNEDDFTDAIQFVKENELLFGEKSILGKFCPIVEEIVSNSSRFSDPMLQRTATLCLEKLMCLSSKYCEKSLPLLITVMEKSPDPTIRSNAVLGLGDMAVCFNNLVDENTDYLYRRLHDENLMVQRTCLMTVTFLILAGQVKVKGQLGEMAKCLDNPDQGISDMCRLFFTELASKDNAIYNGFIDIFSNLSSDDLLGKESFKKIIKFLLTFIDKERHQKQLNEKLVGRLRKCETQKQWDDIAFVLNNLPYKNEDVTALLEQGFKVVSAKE

- binding result [1]: binds
- binding result [2]: binds
B1: Brn1-HA3-His12 (natural protein, budding yeast (S. cerevisiae), UniProt P38170 1-754, looked up)
chain: MTTQLRYENNDDDERVEYNLFTNRSTMMANFEEWIKMATDNKINSRNSWNFALIDYFYDLDVLKDGENNINFQKASATLDGCIKIYSSRVDSVTTETGKLLSGLAQRKTNGASNGDDSNGGNGEGLGGDSDEANIEIDPLTGMPISNDPDVNNTRRRVYNRVLETTLVEFETIKMKELDQELIIDPLFKKALVDFDEGGAKSLLLNTLNIDNTARVIFDASIKDTQNVGQGKLQRKEEELIERDSLVDDENEPSQSLISTRNDSTVNDSVISAPSMEDEILSLGMDFIKFDQIAVCEISGSIEQLRNVVEDINQAKDFIENVNNRFDNFLTEEELQAAVPDNAEDDSDGFDMGMQQELCYPDENHDNTSHDEQDDDNVNSTTGSIFEKDLMAYFDENLNRNWRGREHWKVRNFKKANLVNKESDLLEETRTTIGDTTDKNTTDDKSMDTKKKHKQKKVLEIDFFKTDDSFEDKVFASKGRTKIDMPIKNRKNDTHYLLPDDFHFSTDRITRLFIKPGQKMSLFSHRKHTRGDVSSGLFEKSTVSANHSNNDIPTIADEHFWADNYERKEQEEKEKEQSKEVGDVVGGALDNPFEDDMDGVDFNQAFEGTDDNEEASVKLDLQDDEDHKFPIRENKVTYSRVSKKVDVRRLKKNVWRSINNLIQEHDSRKNREQSSNDSETHTEDESTKELKFSDIIQGISKMYSDDTLKDISTSFCFICLLHLANEHGLQITHTENYNDLIVNYEDLATTQAAS
notes: Brn1, kleisin subunit of budding yeast (S. cerevisiae) condensin; 754 residues as printed (279/754 traced in the head module map); The tags' end is read from the plasmid's name BRN1-HA3-His12; also called kleisin Brn1
